From paper PMC12684077 (Cell, 2025)

Target: RSV prefusion F (PR-DM) (Human respiratory syncytial virus A, …, stabilised)
Assay: cryo-EM structure

Binder	stoichiometry N
RSV-2245 Fab (Fab, V domains shown) VH: QVQLVQSGAEVKKPGASVKVSCKASGYSFSSFGVSWVRQAPGQGLEWLGWISAYNGNTDYAQKVQGRLTMTTDTSTNTAYMELRNLRSDDTAVYYCARDPPASAAAMFDYWGQGTLVTVSS VL: not shown	3 copies of the Fab per F trimer
RSV-3301 Fab (Fab, V domains shown) VH: QVQLVESGPTLVKPTQTLTLTCSFSGFSLSTRGVGVGWVRQPPGKALECLGFTYWDGDEYYSPSLRNRVTISKDTSKNQVVLTLTNMDPVDTATYFCVHSDLYDRGGYYLYYFDYWGQGTLVTVSS VL: DIRVTQSPSSLSASVGDRVTITCRASQTIASYVNWYQQKPGRAPELLIYAASILQSGVPSRFSGRGSGTDFTLTINGLQPEDFATYYCQQSYSSPWTFGQGTKVEIK	3 copies of the Fab per F trimer
